According to patent publication US20160237144A1:

B1: RabMab 0712pS4D3 (antibody, V domains shown)
VH: CQSLEESGGRLVKPGGSLTLTCTVSGFSLSSYAMIWVRQAPGKGLEWIGVISSLGITYYANWAKGRFTISKASTTVDLKIASPTIGDTATYFCARGFFAGGSNYYPLWGPGTLVTVSS
VL: CQASETIINWCSWYQQKPGQPPKLLIYKASNLESGVPSRFKGSGSGTEFTLTISDLECADAATYYCQQGYGYRDLENPFGGGTEVVVKG
B2: RabMab 0612pS3A8 (antibody, V domains shown)
VH: CQSVEESGGRLVTPGTPLTLTCTVSGFSLSSNAISWVRQAPGKGLEWIGIINNIGSTWYASWAKGRFTISKASSTTVDLKMTSLTTEDTATYFCARIVVNYNLGPYNLWGPGTLVTVSS
VL: AFELTQTPSSVEAAVGGTVTIKCQATENIGNALAWYQQKPGQPPKLLIYRASTLASGVPSRFKGSGSGTDFTLTISDLECADAATYYCQSYYDIYTYVFGGGTEL

Legend:
[1] = target: TtSlyD-FKBP-A (Thermus thermophilus); assay: SPR (Biacore), 25 C; antibody captured on goat anti-rabbit Fc-gamma, TtSlyD-A as analyte; kd set to the instrument limit of 1e-05 1/s
[2] = target: TtSlyD-FKBP-B (Thermus thermophilus); assay: SPR (Biacore), 25 C; antibody (89 RU) captured on goat anti-rabbit Fc-gamma, TtSlyD-B as analyte; Langmuir fit
[3] = target: TtSlyD-FKBP-A (Thermus thermophilus); assay: SPR (Biacore), captured antibody, TtSlyD_A as analyte 0-300 nM, Langmuir fit
[4] = target: TtSlyD-FKBP-B (Thermus thermophilus); assay: SPR (Biacore), 25 C; antibody captured on goat anti-rabbit Fc-gamma, TtSlyD-B as analyte; kd set to the instrument limit of 1e-05 1/s
[5] = target: TtSlyD-FKBP-B (Thermus thermophilus); assay: SPR (Biacore), captured antibody, TtSlyD_B as analyte 0-300 nM, Langmuir fit
[6] = target: TtSlyD-FKBP clone 3 F12 (Thermus thermophilus); assay: SPR (Biacore), 25 C; 1268 RU 0712pS4D5 captured on goat anti-rabbit antibody, scaffold 3F12 (18 kDa) captured by it
[7] = target: TtSlyD-FKBP clone 3 C1 (Thermus thermophilus); assay: SPR (Biacore), 25 C; 1253 RU 0712pS4D5 captured on goat anti-rabbit antibody, scaffold 3C1 (18 kDa) captured by it
[8] = target: TtSlyD-FKBP-B (Thermus thermophilus); assay: SPR (Biacore), 25 C; antibody captured on goat anti-rabbit Fc-gamma, TtSlyD-B as analyte; apparent affinity, kd set to the instrument limit
[9] = target: TtSlyD-FKBP-A (Thermus thermophilus); assay: SPR (Biacore), 25 C; antibody (92 RU) captured on goat anti-rabbit Fc-gamma, TtSlyD-A as analyte; Langmuir fit
[10] = target: TtSlyD-FKBP-B (Thermus thermophilus); assay: SPR (Biacore B3000), antibody captured by GAR-Fcγ, scaffold in solution, 25° C.; dissociation beyond instrument limit
[11] = target: TtSlyD-FKBP-A (Thermus thermophilus); assay: as above
[12] = target: TtSlyD-FKBP clone 5F8 (Thermus thermophilus); assay: SPR (Biacore), 25 C; 1141 RU 0712pS4D5 captured on goat anti-rabbit antibody, scaffold 5F8 (18 kDa) captured by it
[13] = target: TtSlyD-FKBP-A (Thermus thermophilus); assay: SPR (Biacore), 25 C; antibody captured on goat anti-rabbit Fc-gamma, TtSlyD-A as analyte; apparent affinity, kd set to the instrument limit
[14] = target: TtSlyD-FKBP-A (Thermus thermophilus); assay: SPR (Biacore), 25 C; antibody (223 RU) captured on goat anti-rabbit Fc-gamma, TtSlyD-A as analyte; Langmuir fit
[15] = target: TtSlyD-FKBP-B (Thermus thermophilus); assay: SPR (Biacore), 25 C; antibody (212 RU) captured on goat anti-rabbit Fc-gamma, TtSlyD-B as analyte; Langmuir fit

TtSlyD-FKBP-B (Thermus thermophilus), sequence (main, as listed by the source): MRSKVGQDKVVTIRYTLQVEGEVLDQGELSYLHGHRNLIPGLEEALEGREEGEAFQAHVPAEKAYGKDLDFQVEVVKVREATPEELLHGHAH
TtSlyD-FKBP-A (Thermus thermophilus), sequence (main, as listed by the source): as above
TtSlyD-FKBP clone 3 C1 (Thermus thermophilus), sequence (main, as listed by the source): as above
TtSlyD-FKBP clone 5F8 (Thermus thermophilus), sequence (main, as listed by the source): as above
TtSlyD-FKBP clone 3 F12 (Thermus thermophilus), sequence (main, as listed by the source): as above

koff [1] | Kd [3] | MR (Molar Ratio) [3] | koff [3] | kon [3] | koff [4] | Kd [5] | MR (Molar Ratio) [5] | koff [5] | kon [5] | Kd [8] | koff [10] | koff [11] | Kd [13] | other results | Binder
1e-05 s⁻¹ | 0.03 nM | 1.7 | < 1e-05 s⁻¹ | 335000 M⁻¹ s⁻¹ | 1e-05 s⁻¹ | 0.037 nM | 1.9 | < 1e-05 s⁻¹ | 271000 M⁻¹ s⁻¹ | 0.0369 nM | < 1e-05 s⁻¹ | < 1e-05 s⁻¹ | 0.0299 nM | MR (Molar Ratio) [2]: 1.9; kon [2]: 271000 M⁻¹ s⁻¹; MR (Molar Ratio) [6]: 2; scaffold (RU) [6]: 286 RU; MR (Molar Ratio) [7]: 2; scaffold (RU) [7]: 267 RU; MR (Molar Ratio) [9]: 1.7; kon [9]: 335000 M⁻¹ s⁻¹; MR (Molar Ratio) [12]: 2; scaffold (RU) [12]: 254 RU | B1
1e-05 s⁻¹ | 0.008 nM | 1.2 | < 1e-05 s⁻¹ | 1.27e+06 M⁻¹ s⁻¹ | 1e-05 s⁻¹ | 0.023 nM | 1.4 | < 1e-05 s⁻¹ | 428000 M⁻¹ s⁻¹ | 0.0234 nM | < 1e-05 s⁻¹ | < 1e-05 s⁻¹ | 0.00787 nM | MR (Molar Ratio) [14]: 1.2; kon [14]: 1.27e+06 M⁻¹ s⁻¹; MR (Molar Ratio) [15]: 1.4; kon [15]: 428000 M⁻¹ s⁻¹ | B2
